Laboratory results as given in PMC3103430, “RecA Proteins from Deinococcus geothermalis and Deinococcus murrayi - Cloning, Purification and Biochemical Characterisation”.

Experiments:
DmuRecA = DmuRecA (Deinococcus murrayi DSM 11303, UniProt E7CG23 1-359); test: EMSA; 8-10 mM Mg2+ (most efficient), ATPgS + ATP, 37 C; 20 mM potassium phosphate pH 7.5, 0-10 mM MgCl2, 110 uM ATPgS + 300 uM ATP (ssDNA, 9 uM RecA) or 180 uM ATPgS + 500 uM ATP (dsDNA, 12 uM RecA), 30 min at 37 C (25-75 C series for ssDNA), 0.8% agarose gel; conditions: protein: recombinant; tags: none (native start and stop codons, NdeI/XhoI in pET-30Ek/LIC); label: 5'-fluorescein
DgeRecA = DgeRecA (Deinococcus geothermalis DSM 11302, UniProt Q1IWF2 1-358); test: as above; conditions: protein: recombinant; tags: none (native start and stop codons, NdeI/HindIII in pET-30Ek/LIC); label: 5'-fluorescein
Sequence of DgeRecA (Q1IWF2 whole entry): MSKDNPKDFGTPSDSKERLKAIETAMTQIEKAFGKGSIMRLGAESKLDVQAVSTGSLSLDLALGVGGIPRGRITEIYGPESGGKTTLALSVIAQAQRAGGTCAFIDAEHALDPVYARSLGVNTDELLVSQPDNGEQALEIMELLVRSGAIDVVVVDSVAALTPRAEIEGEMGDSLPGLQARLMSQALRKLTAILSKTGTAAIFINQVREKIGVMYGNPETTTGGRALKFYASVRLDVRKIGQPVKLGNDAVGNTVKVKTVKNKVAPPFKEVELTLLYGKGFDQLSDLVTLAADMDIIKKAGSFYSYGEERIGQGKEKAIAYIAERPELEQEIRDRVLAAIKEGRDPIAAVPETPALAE

TTTTTTTTTTTTTTTTTTTTTTTTTTTTTTTTTTT (ssDNA) [oligo(dT)35]: binds (DmuRecA); binds (DgeRecA).
